CLOD and Kd data for one substance are collected here from US20230331811A1, “IMMOBILIZED SELF-ASSEMBLED PROTEIN MULTIMERS” (CCOA THERAPEUTICS INC., priority 2020, published 2023).

The assay deals with T1, fibrinogen (Homo sapiens, UniProt P02671+P02675+P02679).
T1 sequence (P02671 20-629 limits assumed): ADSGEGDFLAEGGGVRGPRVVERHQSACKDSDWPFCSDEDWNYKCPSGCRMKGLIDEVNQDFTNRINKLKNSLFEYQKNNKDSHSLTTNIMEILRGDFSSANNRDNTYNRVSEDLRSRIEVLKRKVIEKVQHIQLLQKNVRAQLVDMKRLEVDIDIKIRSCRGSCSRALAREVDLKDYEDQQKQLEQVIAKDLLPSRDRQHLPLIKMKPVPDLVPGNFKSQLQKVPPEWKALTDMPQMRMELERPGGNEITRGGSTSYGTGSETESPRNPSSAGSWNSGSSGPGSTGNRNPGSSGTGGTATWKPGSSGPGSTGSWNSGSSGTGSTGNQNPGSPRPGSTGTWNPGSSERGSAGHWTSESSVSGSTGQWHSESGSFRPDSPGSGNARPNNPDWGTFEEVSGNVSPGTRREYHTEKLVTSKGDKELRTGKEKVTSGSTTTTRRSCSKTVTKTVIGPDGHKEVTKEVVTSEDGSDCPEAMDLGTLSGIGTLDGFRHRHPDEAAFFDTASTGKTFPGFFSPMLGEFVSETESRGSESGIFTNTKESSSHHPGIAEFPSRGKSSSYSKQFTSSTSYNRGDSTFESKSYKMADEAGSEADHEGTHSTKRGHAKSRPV
T1 sequence (P02675 31-491): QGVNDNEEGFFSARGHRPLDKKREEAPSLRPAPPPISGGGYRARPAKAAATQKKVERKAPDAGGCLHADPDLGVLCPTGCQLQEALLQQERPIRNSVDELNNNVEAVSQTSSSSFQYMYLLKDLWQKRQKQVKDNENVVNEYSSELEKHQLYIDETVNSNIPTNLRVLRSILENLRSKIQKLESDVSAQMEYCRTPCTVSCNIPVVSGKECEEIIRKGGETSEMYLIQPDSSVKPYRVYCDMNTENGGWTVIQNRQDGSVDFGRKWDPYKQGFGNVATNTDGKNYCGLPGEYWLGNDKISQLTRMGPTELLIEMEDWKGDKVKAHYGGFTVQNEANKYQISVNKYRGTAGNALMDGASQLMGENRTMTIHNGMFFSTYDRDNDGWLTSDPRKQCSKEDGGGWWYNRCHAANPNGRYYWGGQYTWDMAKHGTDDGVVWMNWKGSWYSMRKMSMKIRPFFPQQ
T1 sequence (P02679 27-453): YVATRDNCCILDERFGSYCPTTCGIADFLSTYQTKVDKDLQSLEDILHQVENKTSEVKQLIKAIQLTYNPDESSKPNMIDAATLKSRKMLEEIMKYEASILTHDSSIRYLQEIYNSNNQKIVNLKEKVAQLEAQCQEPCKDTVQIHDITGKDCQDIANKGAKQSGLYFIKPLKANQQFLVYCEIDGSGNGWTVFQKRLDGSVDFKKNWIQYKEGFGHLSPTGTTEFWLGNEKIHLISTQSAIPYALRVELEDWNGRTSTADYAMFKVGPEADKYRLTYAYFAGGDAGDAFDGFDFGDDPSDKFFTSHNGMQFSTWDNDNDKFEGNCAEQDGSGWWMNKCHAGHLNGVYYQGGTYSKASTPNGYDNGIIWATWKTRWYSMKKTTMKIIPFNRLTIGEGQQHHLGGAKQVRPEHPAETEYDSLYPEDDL
As to the kind of experiment: Fibrinogen ELISA assay. Format: binding. The settings on record: sandwich ELISA. On the procedure:
Fibrinogen ELISA Assay. To ensure similar immobilization levels of recombinant human ectodomain aIIbβ3 between the ELISA plate and integrin coupled magnetic beads, the wells of a 96-well micro plate (Nunc MaxiSorp) were incubated with the same aIIbβ3 concentration per surface area as during the preparation of the magnetic beads, 6.6×10^4 μg·mL^−1·c^−2. Each well was coated with aIIbβ3 or control proteins (BSA and β3−/− platelet lysate) by incubation of 6 μg/μL protein in binding buffer (TRIS buffered saline with 0.05% TWEEN-20 and 1 mM each of MgCl2, MnCl2 and CaCl2)) at 4° C. overnight. Incubation of 3% skim milk (ED Millipore) and 2% TWEEN-20 for 1 hour at 37° C. was used for blocking. The concentration of aIIbβ3 per surface area of bead used when coating SAM coated beads is 6.6×10^4 μg·mL^−1·cm^−2, therefore the wells of 96 well plates used were coated with the same density EDC/NHS quenching achieved by increase pH to 8.6. Bead concentration for synthesis: 6×10^9 beads·mL^−1; Integrin-bead reaction concentration=250 μg·mL^−1; Integrin Used=6.6×10^4 μg·mL^−1·cm^−2; Well Surface Area (50 μL)=0.93 cm^2; Concentration/wee for ELISA=6×10^4 μg·mL^−1 (6 μL/well in 50 μL total volume); Stock [αIIbβ3]=5×10^5 μg·mL^−1.
Fibrinogen binding. […] The OPD peroxidase reaction was stopped after 1 hour with 2 M H2SO4 and the absorbance was read at 492 nm. […]
(In general: In an ELISA, binding on a coated surface is turned into a signal by an enzyme label.)

Usually Kd stands for the free concentration of one partner at which half of the binding sites on the other are occupied at equilibrium, for simple one-to-one binding. Lower therefore signals tighter binding. Regarding “integrin: Recombinant human ectodomain αIIbβ3 immobilized on 96-well ELISA plate at the same density as on the beads”, the CLOD (fibrinogen detection) was 0.54 ± 0.07 µM. This substance also gave a Kd (integrin on plate surface, blocking step, HRP labelled detection antibody) of 2200 ± 400 nM.
